From publication PMC12661985, “USP25 deubiquitinates cytosolic METTL3 to impede glioma proliferation via an m6A-independent pathway” (iScience, 2025) come the findings set out here.

One assay concerns the target T1, His-USP25 (human, UniProt Q9UHP3 1-1055).
T1 construct: USP25, human; also called pGEX-4T-1-His-USP25; source: E. coli BL21, purified
T1 sequence (looked up): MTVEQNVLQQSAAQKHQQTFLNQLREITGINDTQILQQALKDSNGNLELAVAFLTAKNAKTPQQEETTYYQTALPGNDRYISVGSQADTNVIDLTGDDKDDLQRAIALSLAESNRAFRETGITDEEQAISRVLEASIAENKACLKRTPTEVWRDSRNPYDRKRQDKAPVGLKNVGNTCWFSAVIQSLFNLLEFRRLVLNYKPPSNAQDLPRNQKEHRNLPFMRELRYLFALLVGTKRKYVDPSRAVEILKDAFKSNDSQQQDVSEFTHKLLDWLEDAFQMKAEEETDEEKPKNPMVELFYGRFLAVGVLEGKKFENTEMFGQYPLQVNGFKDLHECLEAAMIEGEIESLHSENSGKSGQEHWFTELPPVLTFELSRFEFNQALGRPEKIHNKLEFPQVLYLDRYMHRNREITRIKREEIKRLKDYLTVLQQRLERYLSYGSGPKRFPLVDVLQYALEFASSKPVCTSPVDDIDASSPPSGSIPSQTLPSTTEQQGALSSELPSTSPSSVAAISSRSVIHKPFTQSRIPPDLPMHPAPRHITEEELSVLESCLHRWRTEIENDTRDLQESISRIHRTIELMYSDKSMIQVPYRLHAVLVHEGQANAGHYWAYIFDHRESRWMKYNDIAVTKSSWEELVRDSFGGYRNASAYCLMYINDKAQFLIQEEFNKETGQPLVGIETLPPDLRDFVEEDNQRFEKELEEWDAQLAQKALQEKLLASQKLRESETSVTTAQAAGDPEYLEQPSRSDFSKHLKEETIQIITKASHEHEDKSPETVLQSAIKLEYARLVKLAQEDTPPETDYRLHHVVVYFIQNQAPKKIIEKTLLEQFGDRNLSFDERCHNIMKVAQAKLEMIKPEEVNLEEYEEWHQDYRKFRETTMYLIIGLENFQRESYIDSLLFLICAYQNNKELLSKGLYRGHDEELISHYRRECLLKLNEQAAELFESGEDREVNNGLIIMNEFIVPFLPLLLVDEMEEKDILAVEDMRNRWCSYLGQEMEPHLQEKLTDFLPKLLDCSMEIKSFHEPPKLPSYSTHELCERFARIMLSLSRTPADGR
The assay can be described thus: pull-down; about 10 ug GST fusion protein on glutathione Sepharose incubated with recombinant His-tagged protein, 2 h at 4 C, six washes with NETN buffer; blot with His antibodies. As to conditions: both partners purified.

A further assay deals with T2, His-METTL3 (human, UniProt Q86U44 1-580).
T2 construct: METTL3, human; also called pGEX-4T-1-His-METTL3; source: E. coli BL21, purified
The description is as above. The following applies: both partners purified.

T2 sequence (Q86U44 whole entry): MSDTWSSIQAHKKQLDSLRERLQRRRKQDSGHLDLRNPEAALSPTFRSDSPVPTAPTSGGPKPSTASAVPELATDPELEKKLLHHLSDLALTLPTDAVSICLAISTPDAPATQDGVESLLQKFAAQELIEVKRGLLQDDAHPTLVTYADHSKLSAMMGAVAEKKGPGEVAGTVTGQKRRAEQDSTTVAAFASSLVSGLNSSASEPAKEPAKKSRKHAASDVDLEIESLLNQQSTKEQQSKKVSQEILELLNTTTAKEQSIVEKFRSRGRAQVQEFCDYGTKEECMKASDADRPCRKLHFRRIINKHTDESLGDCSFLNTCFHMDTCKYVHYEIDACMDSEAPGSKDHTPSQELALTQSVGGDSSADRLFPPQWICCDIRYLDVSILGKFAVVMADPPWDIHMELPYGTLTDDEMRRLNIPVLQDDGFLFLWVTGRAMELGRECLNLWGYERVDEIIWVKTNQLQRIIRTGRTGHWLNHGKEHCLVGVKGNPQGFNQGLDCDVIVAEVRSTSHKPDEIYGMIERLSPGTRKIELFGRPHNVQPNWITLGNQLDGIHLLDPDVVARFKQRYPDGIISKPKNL

B1: GST-METTL3-425-500 (domain or fragment, human, UniProt Q86U44 425-500, looked up)
chain: DGFLFLWVTGRAMELGRECLNLWGYERVDEIIWVKTNQLQRIIRTGRTGHWLNHGKEHCLVGVKGNPQGFNQGLDC
notes: METTL3, human, Interface loop, residues 425-500; also called Interface loop (aa 425-500) of METTL3; pGEX-4T-1-GST-METTL3-425-500; source: E. coli BL21, purified (glutathione Sepharose)
As for B1, in the assay with His-USP25, the binding result is “binds”.

B2: GST-METTL3-369-424 (domain or fragment, human, UniProt Q86U44 369-424, looked up)
chain: FPPQWICCDIRYLDVSILGKFAVVMADPPWDIHMELPYGTLTDDEMRRLNIPVLQD
notes: METTL3, human, Gate-loop 1; source: E. coli BL21, purified (glutathione Sepharose)
For B2, the binding result with His-USP25 is reported as “binds”.

B3: GST-USP25-166-718 (domain or fragment, human, UniProt Q9UHP3 166-718, looked up)
chain: KAPVGLKNVGNTCWFSAVIQSLFNLLEFRRLVLNYKPPSNAQDLPRNQKEHRNLPFMRELRYLFALLVGTKRKYVDPSRAVEILKDAFKSNDSQQQDVSEFTHKLLDWLEDAFQMKAEEETDEEKPKNPMVELFYGRFLAVGVLEGKKFENTEMFGQYPLQVNGFKDLHECLEAAMIEGEIESLHSENSGKSGQEHWFTELPPVLTFELSRFEFNQALGRPEKIHNKLEFPQVLYLDRYMHRNREITRIKREEIKRLKDYLTVLQQRLERYLSYGSGPKRFPLVDVLQYALEFASSKPVCTSPVDDIDASSPPSGSIPSQTLPSTTEQQGALSSELPSTSPSSVAAISSRSVIHKPFTQSRIPPDLPMHPAPRHITEEELSVLESCLHRWRTEIENDTRDLQESISRIHRTIELMYSDKSMIQVPYRLHAVLVHEGQANAGHYWAYIFDHRESRWMKYNDIAVTKSSWEELVRDSFGGYRNASAYCLMYINDKAQFLIQEEFNKETGQPLVGIETLPPDLRDFVEEDNQRFEKELEEWDAQLAQKALQEKLLA
notes: USP25, human, USP domain, residues 166-718; also called USP domain (aa 166-718) of USP25; pGEX-4T-1-GST-USP25-166-718; source: E. coli BL21, purified (glutathione Sepharose)
In the case of B3, in the assay with His-METTL3, the binding result was “binds”.
